We go through four molecules from article PMC11467669 (The Journal of Biological Chemistry, 2024).

Series [1] has as its target mono-ubiquitin with an N-terminal fluorescein moiety (UniProt P0CG47 1-76, fluorescein on the N-terminus). The experiment in a line: fluorescence polarisation.
The series “SEC-MALLS” concerns the molecule itself. The experiment in a line: SEC-MALLS.

Usually Kd stands for the free concentration of one partner at which half of the binding sites on the other are occupied at equilibrium, for simple one-to-one binding. High values mean lower affinity, low ones higher affinity. In general, stoichiometry N refers to the number of molecules, sites or subunits per partner or assembly.

B1: full-length USP8 (a.a. 7-1110), non-phosphorylated (enzyme)
chain: VPKELYLSSSLKDLNKKTEVKPEKISTKSYVHSALKIFKTAEECRLDRDEERAYVLYMKYVTVYNLIKKRPDFKQQQDYFHSILGPGNIKKAVEEAERLSESLKLRYEEAEVRKKLEEKDRQEEAQRLQQKRQETGREDGGTLAKGSLENVLDSKDKTQKSNGEKNEKCETKEKGAITAKELYTMMTDKNISLIIMDARRMQDYQDSCILHSLSVPEEAISPGVTASWIEAHLPDDSKDTWKKRGNVEYVVLLDWFSSAKDLQIGTTLRSLKDALFKWESKTVLRNEPLVLEGGYENWLLCYPQYTTNAKVTPPPRRQNEEVSISLDFTYPSLEESIPSKPAAQTPPASIEVDENIELISGQNERMGPLNISTPVEPVAASKSDVSPIIQPVPSIKNVPQIDRTKKPAVKLPEEHRIKSESTNHEQQSPQSGKVIPDRSTKPVVFSPTLMLTDEEKARIHAETALLMEKNKQEKELRERQQEEQKEKLRKEEQEQKAKKKQEAEENEITEKQQKAKEEMEKKESEQAKKEDKETSAKRGKEITGVKRQSKSEHETSDAKKSVEDRGKRCPTPEIQKKSTGDVPHTSVTGDSGSGKPFKIKGQPESGILRTGTFREDTDDTERNKAQREPLTRARSEEMGRIVPGLPSGWAKFLDPITGTFRYYHSPTNTVHMYPPEMAPSSAPPSTPPTHKAKPQIPAERDREPSKLKRSYSSPDITQAIQEEEKRKPTVTPTVNRENKPTCYPKAEISRLSASQIRNLNPVFGGSGPALTGLRNLGNTCYMNSILQCLCNAPHLADYFNRNCYQDDINRSNLLGHKGEVAEEFGIIMKALWTGQYRYISPKDFKITIGKINDQFAGYSQQDSQELLLFLMDGLHEDLNKADNRKRYKEENNDHLDDFKAAEHAWQKHKQLNESIIVALFQGQFKSTVQCLTCHKKSRTFEAFMYLSLPLASTSKCTLQDCLRLFSKEEKLTDNNRFYCSHCRARRDSLKKIEIWKLPPVLLVHLKRFSYDGRWKQKLQTSVDFPLENLDLSQYVIGPKNNLKKYNLFSVSNHYGGLDGGHYTAYCKNAARQRWFKFDDHEVSDISVSSVKSSAAYILFYTSLG
Regarding B1, the Kd in series [1] amounted to 1480 nM.

B2: USP8 Δ686–757 (FL USP8, a.a. 7-1110, entire WW-CD linker deleted) (enzyme)
chain: VPKELYLSSSLKDLNKKTEVKPEKISTKSYVHSALKIFKTAEECRLDRDEERAYVLYMKYVTVYNLIKKRPDFKQQQDYFHSILGPGNIKKAVEEAERLSESLKLRYEEAEVRKKLEEKDRQEEAQRLQQKRQETGREDGGTLAKGSLENVLDSKDKTQKSNGEKNEKCETKEKGAITAKELYTMMTDKNISLIIMDARRMQDYQDSCILHSLSVPEEAISPGVTASWIEAHLPDDSKDTWKKRGNVEYVVLLDWFSSAKDLQIGTTLRSLKDALFKWESKTVLRNEPLVLEGGYENWLLCYPQYTTNAKVTPPPRRQNEEVSISLDFTYPSLEESIPSKPAAQTPPASIEVDENIELISGQNERMGPLNISTPVEPVAASKSDVSPIIQPVPSIKNVPQIDRTKKPAVKLPEEHRIKSESTNHEQQSPQSGKVIPDRSTKPVVFSPTLMLTDEEKARIHAETALLMEKNKQEKELRERQQEEQKEKLRKEEQEQKAKKKQEAEENEITEKQQKAKEEMEKKESEQAKKEDKETSAKRGKEITGVKRQSKSEHETSDAKKSVEDRGKRCPTPEIQKKSTGDVPHTSVTGDSGSGKPFKIKGQPESGILRTGTFREDTDDTERNKAQREPLTRARSEEMGRIVPGLPSGWAKFLDPITGTFRYYHSPTNTVHMYPPEMAPSASQIRNLNPVFGGSGPALTGLRNLGNTCYMNSILQCLCNAPHLADYFNRNCYQDDINRSNLLGHKGEVAEEFGIIMKALWTGQYRYISPKDFKITIGKINDQFAGYSQQDSQELLLFLMDGLHEDLNKADNRKRYKEENNDHLDDFKAAEHAWQKHKQLNESIIVALFQGQFKSTVQCLTCHKKSRTFEAFMYLSLPLASTSKCTLQDCLRLFSKEEKLTDNNRFYCSHCRARRDSLKKIEIWKLPPVLLVHLKRFSYDGRWKQKLQTSVDFPLENLDLSQYVIGPKNNLKKYNLFSVSNHYGGLDGGHYTAYCKNAARQRWFKFDDHEVSDISVSSVKSSAAYILFYTSLG
In the case of B2, the Kd in series [1] was determined as 367 nM.

B3: 14-3-3γ (natural protein, UniProt P61981 1-247, looked up)
chain: MVDREQLVQKARLAEQAERYDDMAAAMKNVTELNEPLSNEERNLLSVAYKNVVGARRSSWRVISSIEQKTSADGNEKKIEMVRAYREKIEKELEAVCQDVLSLLDNYLIKNCSETQYESKVFYLKMKGDYYRYLAEVATGEKRATVVESSEKAYSEAHEISKEHMQPTHPIRLGLALNYSVFYYEIQNAPEQACHLAKTAFDDAIAELDTLNEDSYKDSTLIMQLLRDNLTLWTSDQQDDDGGEGNN
In the case of B3, the “stoichiometry N” value in the series “SEC-MALLS” came out at 2.

B4: USP8 ΔWW (WW domain-deleted mutant of FL USP8, a.a. 7-1110) (enzyme)
chain: VPKELYLSSSLKDLNKKTEVKPEKISTKSYVHSALKIFKTAEECRLDRDEERAYVLYMKYVTVYNLIKKRPDFKQQQDYFHSILGPGNIKKAVEEAERLSESLKLRYEEAEVRKKLEEKDRQEEAQRLQQKRQETGREDGGTLAKGSLENVLDSKDKTQKSNGEKNEKCETKEKGAITAKELYTMMTDKNISLIIMDARRMQDYQDSCILHSLSVPEEAISPGVTASWIEAHLPDDSKDTWKKRGNVEYVVLLDWFSSAKDLQIGTTLRSLKDALFKWESKTVLRNEPLVLEGGYENWLLCYPQYTTNAKVTPPPRRQNEEVSISLDFTYPSLEESIPSKPAAQTPPASIEVDENIELISGQNERMGPLNISTPVEPVAASKSDVSPIIQPVPSIKNVPQIDRTKKPAVKLPEEHRIKSESTNHEQQSPQSGKVIPDRSTKPVVFSPTLMLTDEEKARIHAETALLMEKNKQEKELRERQQEEQKEKLRKEEQEQKAKKKQEAEENEITEKQQKAKEEMEKKESEQAKKEDKETSAKRGKEITGVKRQSKSEHETSDAKKSVEDRGKRCPTPEIQKKSTGDVPHTSVTGDSGSGKPFKIKGQPESGILRTGTFREDTDDTERNKAQREPLTRARSEEMSSAPPSTPPTHKAKPQIPAERDREPSKLKRSYSSPDITQAIQEEEKRKPTVTPTVNRENKPTCYPKAEISRLSASQIRNLNPVFGGSGPALTGLRNLGNTCYMNSILQCLCNAPHLADYFNRNCYQDDINRSNLLGHKGEVAEEFGIIMKALWTGQYRYISPKDFKITIGKINDQFAGYSQQDSQELLLFLMDGLHEDLNKADNRKRYKEENNDHLDDFKAAEHAWQKHKQLNESIIVALFQGQFKSTVQCLTCHKKSRTFEAFMYLSLPLASTSKCTLQDCLRLFSKEEKLTDNNRFYCSHCRARRDSLKKIEIWKLPPVLLVHLKRFSYDGRWKQKLQTSVDFPLENLDLSQYVIGPKNNLKKYNLFSVSNHYGGLDGGHYTAYCKNAARQRWFKFDDHEVSDISVSSVKSSAAYILFYTSLG
In the case of B4, binding in series [1] was characterised by a dissociation constant (Kd) of 290 nM.
